Source: publication PMC8089094, “Mispair-bound human MutS–MutL complex triggers DNA incisions and activates mismatch repair” (Cell Research, 2021)

B1: human MutLα (MLH1·PMS2 heterodimer), wild type (complex)
chain 1: MSFVAGVIRRLDETVVNRIAAGEVIQRPANAIKEMIENCLDAKSTSIQVIVKEGGLKLIQIQDNGTGIRKEDLDIVCERFTTSKLQSFEDLASISTYGFRGEALASISHVAHVTITTKTADGKCAYRASYSDGKLKAPPKPCAGNQGTQITVEDLFYNIATRRKALKNPSEEYGKILEVVGRYSVHNAGISFSVKKQGETVADVRTLPNASTVDNIRSIFGNAVSRELIEIGCEDKTLAFKMNGYISNANYSVKKCIFLLFINHRLVESTSLRKAIETVYAAYLPKNTHPFLYLSLEISPQNVDVNVHPTKHEVHFLHEESILERVQQHIESKLLGSNSSRMYFTQTLLPGLAGPSGEMVKSTTSLTSSSTSGSSDKVYAHQMVRTDSREQKLDAFLQPLSKPLSSQPQAIVTEDKTDISSGRARQQDEEMLELPAPAEVAAKNQSLEGDTTKGTSEMSEKRGPTSSNPRKRHREDSDVEMVEDDSRKEMTAACTPRRRIINLTSVLSLQEEINEQGHEVLREMLHNHSFVGCVNPQWALAQHQTKLYLLNTTKLSEELFYQILIYDFANFGVLRLSEPAPLFDLAMLALDSPESGWTEEDGPKEGLAEYIVEFLKKKAEMLADYFSLEIDEEGNLIGLPLLIDNYVPPLEGLPIFILRLATEVNWDEEKECFESLSKECAMFYSIRKQYISEESTLSGQQSEVPGSIPNSWKWTVEHIVYKALRSHILPPKHFTEDGNILQLANLPDLYKVFERC
chain 2: MERAESSSTEPAKAIKPIDRKSVHQICSGQVVLSLSTAVKELVENSLDAGATNIDLKLKDYGVDLIEVSDNGCGVEEENFEGLTLKHHTSKIQEFADLTQVETFGFRGEALSSLCALSDVTISTCHASAKVGTRLMFDHNGKIIQKTPYPRPRGTTVSVQQLFSTLPVRHKEFQRNIKKEYAKMVQVLHAYCIISAGIRVSCTNQLGQGKRQPVVCTGGSPSIKENIGSVFGQKQLQSLIPFVQLPPSDSVCEEYGLSCSDALHNLFYISGFISQCTHGVGRSSTDRQFFFINRRPCDPAKVCRLVNEVYHMYNRHQYPFVVLNISVDSECVDINVTPDKRQILLQEEKLLLAVLKTSLIGMFDSDVNKLNVSQQPLLDVEGNLIKMHAADLEKPMVEKQDQSPSLRTGEEKKDVSISRLREAFSLRHTTENKPHSPKTPEPRRSPLGQKRGMLSSSTSGAISDKGVLRPQKEAVSSSHGPSDPTDRAEVEKDSGHGSTSVDSEGFSIPDTGSHCSSEYAASSPGDRGSQEHVDSQEKAPKTDDSFSDVDCHSNQEDTGCKFRVLPQPTNLATPNTKRFKKEEILSSSDICQKLVNTQDMSASQVDVAVKINKKVVPLDFSMSSLAKRIKQLHHEAQQSEGEQNYRKFRAKICPGENQAAEDELRKEISKTMFAEMEIIGQFNLGFIITKLNEDIFIVDQHATDEKYNFEMLQQHTVLQGQRLIAPQTLNLTAVNEAVLIENLEIFRKNGFDFVIDENAPVTERAKLISLPTSKNWTFGPQDVDELIFMLSDSPGVMCRPSRVKQMFASRACRKSVMIGTALNTSEMKKLITHMGEMDHPWNCPHGRPTMRHIANLGVISQN
notes: MLH1 subunit of human MutLα; PMS2 subunit of human MutLα; also called WT MutLα; source: insect cells, purified to homogeneity

Experiments:
LacI = experiment: EMSA; conditions: IPTG; EMSA: 10 mM HEPES pH 7.5, 110 mM KCl, 5 mM MgCl2, 1 mM DTT, 200 ug/mL BSA, 1 pmol cold homoduplex, +/- 2 mM ATP, 20 min on ice; sucrose gradient: 10 mM …
[1] = target: T1, human MutSα (MSH2·MSH6 heterodimer), wild type (human, UniProt P43246 1-934; P52701 1-1360); experiment: native gel or EMSA; with ATP (2 mM); 0.1 pmol 32P-labeled 100-bp duplex with a G–T mismatch, 2 pmol MutSα or MutLα; more slowly migrating MutSα–MutLα–DNA complex; 10 mM HEPES pH 7.5, 5 mM MgCl2, 1 mM DTT, 110 mM KCl, 20 min on ice; 4% non-denaturing polyacrylamide; conditions: both partners purified
T1 construct: MSH2 subunit of human MutSα; MSH6 subunit of human MutSα; also called WT MutSα; MSH2WT·MSH6WT; source: insect cells, purified to homogeneity
T1 sequence (P43246 whole entry, chain 1 of 2): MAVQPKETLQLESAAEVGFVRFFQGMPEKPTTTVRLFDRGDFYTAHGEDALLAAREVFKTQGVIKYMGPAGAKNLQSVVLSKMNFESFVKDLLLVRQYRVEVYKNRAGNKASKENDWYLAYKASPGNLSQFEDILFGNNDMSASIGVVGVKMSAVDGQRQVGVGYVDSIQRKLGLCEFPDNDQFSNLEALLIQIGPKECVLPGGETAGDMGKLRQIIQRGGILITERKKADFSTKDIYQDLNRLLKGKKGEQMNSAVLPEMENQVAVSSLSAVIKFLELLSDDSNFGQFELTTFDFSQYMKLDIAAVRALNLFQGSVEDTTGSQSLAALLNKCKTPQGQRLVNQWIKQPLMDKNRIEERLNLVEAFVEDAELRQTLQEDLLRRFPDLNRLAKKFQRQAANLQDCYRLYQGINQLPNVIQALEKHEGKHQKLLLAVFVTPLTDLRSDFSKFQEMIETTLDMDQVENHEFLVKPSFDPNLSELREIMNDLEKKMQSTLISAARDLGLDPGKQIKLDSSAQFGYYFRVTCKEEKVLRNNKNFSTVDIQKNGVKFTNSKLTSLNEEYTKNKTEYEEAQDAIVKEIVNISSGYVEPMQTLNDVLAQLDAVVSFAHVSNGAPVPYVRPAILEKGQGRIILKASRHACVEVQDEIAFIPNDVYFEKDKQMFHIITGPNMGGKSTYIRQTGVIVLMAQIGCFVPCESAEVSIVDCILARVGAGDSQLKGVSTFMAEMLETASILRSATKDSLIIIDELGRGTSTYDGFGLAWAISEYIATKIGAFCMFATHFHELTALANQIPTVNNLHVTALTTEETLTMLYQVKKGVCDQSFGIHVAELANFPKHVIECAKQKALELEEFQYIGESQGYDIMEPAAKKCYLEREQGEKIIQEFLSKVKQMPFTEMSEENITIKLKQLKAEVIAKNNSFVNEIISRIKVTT
T1 sequence (P52701 whole entry, chain 2 of 2): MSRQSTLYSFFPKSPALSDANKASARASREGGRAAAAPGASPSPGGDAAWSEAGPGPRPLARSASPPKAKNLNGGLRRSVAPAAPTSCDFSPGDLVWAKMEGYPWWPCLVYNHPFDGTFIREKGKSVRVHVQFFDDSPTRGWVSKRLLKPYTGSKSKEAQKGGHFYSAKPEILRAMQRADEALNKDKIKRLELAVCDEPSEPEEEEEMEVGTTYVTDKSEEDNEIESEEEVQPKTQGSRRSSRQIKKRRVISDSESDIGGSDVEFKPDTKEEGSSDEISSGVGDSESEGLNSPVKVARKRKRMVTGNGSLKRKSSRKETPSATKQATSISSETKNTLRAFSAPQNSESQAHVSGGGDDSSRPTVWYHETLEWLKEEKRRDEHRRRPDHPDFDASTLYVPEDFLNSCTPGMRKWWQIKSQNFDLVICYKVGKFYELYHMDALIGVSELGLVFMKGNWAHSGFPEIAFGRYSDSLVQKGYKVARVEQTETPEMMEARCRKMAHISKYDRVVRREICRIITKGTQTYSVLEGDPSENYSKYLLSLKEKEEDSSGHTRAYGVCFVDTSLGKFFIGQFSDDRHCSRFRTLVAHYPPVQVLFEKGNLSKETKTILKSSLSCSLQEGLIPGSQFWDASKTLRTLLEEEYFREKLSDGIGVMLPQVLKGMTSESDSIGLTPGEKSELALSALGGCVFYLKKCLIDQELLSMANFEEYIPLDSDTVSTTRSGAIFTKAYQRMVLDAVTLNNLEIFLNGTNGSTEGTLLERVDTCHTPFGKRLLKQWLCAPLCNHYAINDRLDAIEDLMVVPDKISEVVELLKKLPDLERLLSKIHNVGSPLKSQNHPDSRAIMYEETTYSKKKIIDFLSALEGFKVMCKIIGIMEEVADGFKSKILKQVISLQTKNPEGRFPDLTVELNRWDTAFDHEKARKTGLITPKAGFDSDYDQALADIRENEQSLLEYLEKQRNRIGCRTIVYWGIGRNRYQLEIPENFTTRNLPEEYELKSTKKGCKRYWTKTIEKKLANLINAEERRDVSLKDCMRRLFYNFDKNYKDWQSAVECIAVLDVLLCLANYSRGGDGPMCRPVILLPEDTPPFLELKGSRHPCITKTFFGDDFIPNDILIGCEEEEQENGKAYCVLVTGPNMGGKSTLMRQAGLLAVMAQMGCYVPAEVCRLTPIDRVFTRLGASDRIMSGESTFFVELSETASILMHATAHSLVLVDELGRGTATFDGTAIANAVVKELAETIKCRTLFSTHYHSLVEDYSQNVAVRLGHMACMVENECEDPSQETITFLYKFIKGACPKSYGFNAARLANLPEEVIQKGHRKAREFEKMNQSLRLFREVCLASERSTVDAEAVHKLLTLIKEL

Row | Molecule | binding signal (% of binding released) (LacI) | stoichiometry N [1]
1 | 282-bp G-T heteroduplex with LOS I and LOS II | > 70 | –
2 | B1 | – | > 1 molecule of MutLα in the MutSα–MutLα complex
